Five molecules from PMC3277881 (Molecular Cell, 2011) can be followed below.

First the molecules themselves.
B2: full-length yeast Atg7 (enzyme, yeast (budding yeast), UniProt P38862 1-630, looked up)
chain: MSSERVLSYAPAFKSFLDTSFFQELSRLKLDVLKLDSTCQPLTVNLDLHNIPKSADQVPLFLTNRSFEKHNNKRTNEVPLQGSIFNFNVLDEFKNLDKQLFLHQRALECWEDGIKDINKCVSFVIISFADLKKYRFYYWLGVPCFQRPSSTVLHVRPEPSLKGLFSKCQKWFDVNYSKWVCILDADDEIVNYDKCIIRKTKVLAIRDTSTMENVPSALTKNFLSVLQYDVPDLIDFKLLIIRQNEGSFALNATFASIDPQSSSSNPDMKVSGWERNVQGKLAPRVVDLSSLLDPLKIADQSVDLNLKLMKWRILPDLNLDIIKNTKVLLLGAGTLGCYVSRALIAWGVRKITFVDNGTVSYSNPVRQALYNFEDCGKPKAELAAASLKRIFPLMDATGVKLSIPMIGHKLVNEEAQHKDFDRLRALIKEHDIIFLLVDSRESRWLPSLLSNIENKTVINAALGFDSYLVMRHGNRDEQSSKQLGCYFCHDVVAPTDSLTDRTLDQMCTVTRPGVAMMASSLAVELMTSLLQTKYSGSETTVLGDIPHQIRGFLHNFSILKLETPAYEHCPACSPKVIEAFTDLGWEFVKKALEHPLYLEEISGLSVIKQEVERLGNDVFEWEDDESDEIA

In the data set “full-length yeast Atg7” the target is B2. Kind of data set: ITC. On the technique in general: In ITC the heat of successive injections is recorded.
The data set “AUC” concerns the molecule itself. The data set is described as follows: AUC.
For a further data set, the target named is T1, Atg3 (yeast) (yeast (budding yeast), UniProt P40344 1-310).
T1 sequence: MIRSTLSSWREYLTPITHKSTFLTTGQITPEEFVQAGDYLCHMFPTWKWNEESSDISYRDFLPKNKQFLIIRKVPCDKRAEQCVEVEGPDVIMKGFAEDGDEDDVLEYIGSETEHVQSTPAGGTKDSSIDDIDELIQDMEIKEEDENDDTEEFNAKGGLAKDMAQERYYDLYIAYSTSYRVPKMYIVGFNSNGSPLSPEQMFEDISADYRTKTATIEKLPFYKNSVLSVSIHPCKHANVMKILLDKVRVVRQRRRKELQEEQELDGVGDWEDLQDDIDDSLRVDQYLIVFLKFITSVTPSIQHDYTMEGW
Kind of data set: ITC.

B1: Atg3^ΔFR (yeast Atg3 with the FR region, residues 86-159, deleted) (enzyme, yeast (budding yeast))
chain: MIRSTLSSWREYLTPITHKSTFLTTGQITPEEFVQAGDYLCHMFPTWKWNEESSDISYRDFLPKNKQFLIIRKVPCDKRAEQCVEAKDMAQERYYDLYIAYSTSYRVPKMYIVGFNSNGSPLSPEQMFEDISADYRTKTATIEKLPFYKNSVLSVSIHPCKHANVMKILLDKVRVVRQRRRKELQEEQELDGVGDWEDLQDDIDDSLRVDQYLIVFLKFITSVTPSIQHDYTMEGW
Consider B1, for which the “fold change of Kd against Atg3” value with full-length yeast Atg7 is more than 40 fold. The molecule SIDDIDELIQDMEIKEE (peptide, UniProt P40344 128-144, looked up) [synthetic peptide encompassing Atg3 residues 128-144 (Atg3^FRpep)] registered a dissociation constant Kd with full-length yeast Atg7 of 5.9 µM. Consider B2, for which the “stoichiometry N” value in the data set “AUC” turned out to be 2.

B3: Atg7 N-terminal domain (Atg7^NTD), yeast (domain or fragment, yeast (budding yeast), UniProt P38862 1-289, looked up)
chain: MSSERVLSYAPAFKSFLDTSFFQELSRLKLDVLKLDSTCQPLTVNLDLHNIPKSADQVPLFLTNRSFEKHNNKRTNEVPLQGSIFNFNVLDEFKNLDKQLFLHQRALECWEDGIKDINKCVSFVIISFADLKKYRFYYWLGVPCFQRPSSTVLHVRPEPSLKGLFSKCQKWFDVNYSKWVCILDADDEIVNYDKCIIRKTKVLAIRDTSTMENVPSALTKNFLSVLQYDVPDLIDFKLLIIRQNEGSFALNATFASIDPQSSSSNPDMKVSGWERNVQGKLAPRVVDLS
Molecule B3 returned a Kd in the data set with Atg3 (yeast) of 1.85 µM.

B4: Atg7 C-terminal domain (Atg7^CTD), yeast (domain or fragment, yeast (budding yeast))
chain: SSLLDPLKIADQSVDLNLKLMKWRILPDLNLDIIKNTKVLLLGAGTLGCYVSRALIAWGVRKITFVDNGTVSYSNPVRQALYNFEDCGKPKAELAAASLKRIFPLMDATGVKLSIPMIGHKLVNEEAQHKDFDRLRALIKEHDIIFLLVDSRESRWLPSLLSNIENKTVINAALGFDSYLVMRHGNRDEQSSKQLGCYFCHDVVAPTDSLTDRTLDQMCTVTRPGVAMMASSLAVELMTSLLQTKYSGSETTVLGDIPHQIRGFLHNFSILKLETPAYEHCPACSPKVIEAFTDLGWEFVKKALEHPLYLEEISGLSVIKQEVERLGNDVFEWEDDESDEIA
Consider B4, for which the “stoichiometry N” value in “AUC” worked out at 2.

For orientation: Kd means the equilibrium constant for the complex coming apart. A high value points to weaker binding. The stoichiometry N is a count of units in the complex or per binding partner.
